We go through one substance from patent US20110086768A1.

The assay deals with FLAG-transferrin fusion (pREX1235): modified transferrin (mTf) with a FLAG Tag at the N-terminus and the human GPI sequence at the C-terminus, expressed in HEK-293 cells (human) (UniProt P02787). As to the kind of experiment: FACS of transfected HEK-293 cells with mouse anti-FLAG BioM2 and goat anti-mouse-APC.
UniProt P02787, sequence (P02787 other isoform, or with tags, fused parts or gaps limits assumed): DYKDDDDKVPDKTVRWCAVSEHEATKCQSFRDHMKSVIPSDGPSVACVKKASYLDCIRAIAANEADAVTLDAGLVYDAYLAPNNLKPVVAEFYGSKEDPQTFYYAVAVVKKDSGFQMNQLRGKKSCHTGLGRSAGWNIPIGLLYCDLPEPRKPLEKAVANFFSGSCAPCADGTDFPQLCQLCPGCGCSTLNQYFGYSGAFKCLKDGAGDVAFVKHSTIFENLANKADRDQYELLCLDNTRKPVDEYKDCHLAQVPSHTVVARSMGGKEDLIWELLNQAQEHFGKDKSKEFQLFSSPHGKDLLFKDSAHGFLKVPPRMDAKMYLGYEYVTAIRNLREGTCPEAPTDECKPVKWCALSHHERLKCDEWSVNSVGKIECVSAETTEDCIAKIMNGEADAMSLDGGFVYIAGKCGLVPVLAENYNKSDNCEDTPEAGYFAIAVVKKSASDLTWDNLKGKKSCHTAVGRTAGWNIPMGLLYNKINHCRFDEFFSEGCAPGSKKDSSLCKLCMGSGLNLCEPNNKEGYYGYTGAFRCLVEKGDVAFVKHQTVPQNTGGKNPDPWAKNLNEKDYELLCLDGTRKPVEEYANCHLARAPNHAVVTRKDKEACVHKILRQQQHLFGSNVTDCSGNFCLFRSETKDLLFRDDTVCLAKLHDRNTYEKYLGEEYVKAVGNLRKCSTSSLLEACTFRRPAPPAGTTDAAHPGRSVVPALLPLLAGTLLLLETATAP

In the case of “mouse anti-FLAG BioM2 (Sigma) (antibody)”, the fold increase in staining relative to mock-transfected cells is 4 fold.
